# Assay results from paper PMC9482650, “Quantitative fragmentomics allow affinity mapping of interactomes” (Nature Communications, 2022).
# T1: HTRA4, P83105
# T1 sequence (P83105 378-476, limits assumed, looked up): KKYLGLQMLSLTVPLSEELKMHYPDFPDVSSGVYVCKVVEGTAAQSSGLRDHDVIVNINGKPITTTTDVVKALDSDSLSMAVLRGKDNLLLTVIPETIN
# T2: PDZD2_2, O15018
# T2 sequence (O15018 329-429, limits assumed, looked up): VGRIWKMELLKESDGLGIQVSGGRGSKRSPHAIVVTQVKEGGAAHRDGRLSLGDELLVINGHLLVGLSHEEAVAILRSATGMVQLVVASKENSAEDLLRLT
# T3: APBA3_1, O96018
# T3 sequence (O96018 389-490, limits assumed, looked up): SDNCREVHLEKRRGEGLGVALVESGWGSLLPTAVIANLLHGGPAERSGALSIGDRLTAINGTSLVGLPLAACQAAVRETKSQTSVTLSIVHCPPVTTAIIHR
# T4: DVL3, Q92997
# T4 sequence (Q92997 244-331, limits assumed, looked up): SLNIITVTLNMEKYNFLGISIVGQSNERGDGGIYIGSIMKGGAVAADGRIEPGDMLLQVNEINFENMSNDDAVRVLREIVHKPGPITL
# T5: LIN7C, Q9NUP9
# T5 sequence (Q9NUP9 88-185, limits assumed, looked up): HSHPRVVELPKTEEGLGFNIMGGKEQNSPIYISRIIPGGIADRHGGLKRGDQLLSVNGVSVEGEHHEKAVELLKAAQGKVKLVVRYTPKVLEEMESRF
# T6: LIN7B, Q9HAP6
# T6 sequence (Q9HAP6 88-185, limits assumed, looked up): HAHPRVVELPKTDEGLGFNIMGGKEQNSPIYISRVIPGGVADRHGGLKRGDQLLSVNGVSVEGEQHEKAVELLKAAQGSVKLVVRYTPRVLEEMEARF
# T7: PDZD7_3, Q9H5P4
# T7 sequence (Q9H5P4 857-944, limits assumed, looked up): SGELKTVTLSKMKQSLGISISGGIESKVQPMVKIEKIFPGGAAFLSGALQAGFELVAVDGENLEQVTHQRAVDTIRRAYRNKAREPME
# T8: FRMPD1, Q5SYB0
# T8 sequence (Q5SYB0 52-145, limits assumed, looked up): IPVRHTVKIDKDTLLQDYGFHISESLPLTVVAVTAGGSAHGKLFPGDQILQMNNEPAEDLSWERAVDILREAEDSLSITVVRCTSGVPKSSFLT
# T9: GRIP1_4, Q9Y3R0
# T9 sequence (Q9Y3R0 467-571, limits assumed, looked up): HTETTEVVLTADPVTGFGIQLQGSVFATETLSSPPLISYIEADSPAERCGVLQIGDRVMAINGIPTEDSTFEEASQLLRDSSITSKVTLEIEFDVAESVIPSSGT
# T10: MPP2, Q14168
# T10 sequence (Q14168 180-250, limits assumed, looked up): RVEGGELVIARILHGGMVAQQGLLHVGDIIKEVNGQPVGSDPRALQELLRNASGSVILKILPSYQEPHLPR
# T11: LNX2_3, Q8N448
# T11 sequence (Q8N448 463-564, limits assumed, looked up): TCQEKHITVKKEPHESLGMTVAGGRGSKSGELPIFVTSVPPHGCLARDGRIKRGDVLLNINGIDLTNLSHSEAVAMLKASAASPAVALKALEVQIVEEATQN
# Tests used:
# Assay in all cases: holdup assay
# Set-up in all cases: key: below the threshold = too weak to quantify, mostly under pKd 3.1 to 4
# Conditions in all cases: plain residues with an end cap or a label only (N-terminal biotin on a linker: ado-ado)
# [1] = biological target: MAGI2_5, Q86UL8
# [2] = biological target: T1, HTRA4, P83105
# [3] = biological target: Inadl_9, Q8NI35
# [4] = biological target: MAST2, Q6P0Q8
# [5] = biological target: Inadl_1, Q8NI35
# [6] = biological target: T2, PDZD2_2, O15018
# [7] = biological target: Inadl_8, Q8NI35
# [8] = biological target: Inadl_6, Q8NI35
# [9] = biological target: NHERF4_4, Q86UT5
# [10] = biological target: T3, APBA3_1, O96018
# [11] = biological target: T4, DVL3, Q92997
# [12] = biological target: LNX1_3, Q8TBB1
# [13] = biological target: GRID2IP_1, A4D2P6
# [14] = biological target: T5, LIN7C, Q9NUP9
# [15] = biological target: FRMPD2_1, Q68DX3
# [16] = biological target: T6, LIN7B, Q9HAP6
# [17] = biological target: NHERF4_1, Q86UT5-2
# [18] = biological target: Inadl_3, Q8NI35
# [19] = biological target: DLG4_1, P78352
# [20] = biological target: T7, PDZD7_3, Q9H5P4
# [21] = biological target: T8, FRMPD1, Q5SYB0
# [22] = biological target: T9, GRIP1_4, Q9Y3R0
# [23] = biological target: T10, MPP2, Q14168
# [24] = biological target: ARHGEF12, Q9NZN5-2
# [25] = biological target: T11, LNX2_3, Q8N448
# [26] = biological target: IL16_4, Q14005
# Sequence of IL16_4, Q14005 (Q14005 1229-1329): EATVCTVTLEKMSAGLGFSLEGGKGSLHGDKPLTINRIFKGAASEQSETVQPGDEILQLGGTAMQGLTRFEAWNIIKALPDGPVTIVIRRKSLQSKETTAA
# Sequence of NHERF4_1, Q86UT5-2 (Q86UT5 other isoform, or with tags, fused parts or gaps): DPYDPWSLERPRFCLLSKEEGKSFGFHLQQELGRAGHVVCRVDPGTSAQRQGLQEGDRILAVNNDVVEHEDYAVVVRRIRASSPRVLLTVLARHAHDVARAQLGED
# Sequence of Inadl_9, Q8NI35 (Q8NI35 1530-1615): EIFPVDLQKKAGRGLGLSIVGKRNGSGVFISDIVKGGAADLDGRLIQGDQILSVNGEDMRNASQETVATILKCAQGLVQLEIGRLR
# Sequence of NHERF4_4, Q86UT5 (Q86UT5 464-550): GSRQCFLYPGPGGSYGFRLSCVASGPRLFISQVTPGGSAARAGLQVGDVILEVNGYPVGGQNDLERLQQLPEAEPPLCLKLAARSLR
# Sequence of GRID2IP_1, A4D2P6 (A4D2P6 1-87): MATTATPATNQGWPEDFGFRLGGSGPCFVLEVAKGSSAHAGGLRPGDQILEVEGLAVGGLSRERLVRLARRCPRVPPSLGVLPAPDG
# Sequence of ARHGEF12, Q9NZN5-2 (Q9NZN5 other isoform, or with tags, fused parts or gaps): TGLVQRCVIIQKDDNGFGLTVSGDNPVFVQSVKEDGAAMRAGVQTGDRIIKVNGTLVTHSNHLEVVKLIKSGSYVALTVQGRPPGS
# Sequence of Inadl_6, Q8NI35 (Q8NI35 1058-1167): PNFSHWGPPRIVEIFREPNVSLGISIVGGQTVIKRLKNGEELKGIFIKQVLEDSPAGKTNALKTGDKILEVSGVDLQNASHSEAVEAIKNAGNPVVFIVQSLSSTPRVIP
# Sequence of LNX1_3, Q8TBB1 (Q8TBB1 500-596): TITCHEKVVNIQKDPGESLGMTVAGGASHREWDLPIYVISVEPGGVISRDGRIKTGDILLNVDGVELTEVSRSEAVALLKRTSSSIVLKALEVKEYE
# Sequence of Inadl_8, Q8NI35 (Q8NI35 1425-1530): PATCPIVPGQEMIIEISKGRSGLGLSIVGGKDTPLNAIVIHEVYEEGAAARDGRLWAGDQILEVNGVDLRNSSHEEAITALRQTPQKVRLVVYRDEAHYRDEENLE
# Sequence of FRMPD2_1, Q68DX3 (Q68DX3 770-861): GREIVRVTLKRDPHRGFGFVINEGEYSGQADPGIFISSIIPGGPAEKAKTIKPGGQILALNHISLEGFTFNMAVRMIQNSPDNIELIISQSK
# Sequence of Inadl_3, Q8NI35 (Q8NI35 359-469): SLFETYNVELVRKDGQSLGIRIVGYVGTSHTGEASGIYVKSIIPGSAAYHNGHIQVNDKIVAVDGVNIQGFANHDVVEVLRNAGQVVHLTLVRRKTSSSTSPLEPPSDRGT
# Sequence of DLG4_1, P78352 (P78352 62-152): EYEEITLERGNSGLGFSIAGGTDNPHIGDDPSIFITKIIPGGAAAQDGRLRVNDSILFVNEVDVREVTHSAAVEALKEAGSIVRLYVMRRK
# Sequence of MAST2, Q6P0Q8 (Q6P0Q8 1099-1202): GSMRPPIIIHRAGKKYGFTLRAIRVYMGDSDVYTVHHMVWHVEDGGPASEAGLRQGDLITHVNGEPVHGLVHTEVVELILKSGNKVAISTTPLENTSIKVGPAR
# Sequence of MAGI2_5, Q86UL8 (Q86UL8 915-1017): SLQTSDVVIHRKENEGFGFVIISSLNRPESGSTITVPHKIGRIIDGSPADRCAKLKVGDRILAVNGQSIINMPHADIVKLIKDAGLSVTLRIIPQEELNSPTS
# Sequence of Inadl_1, Q8NI35 (Q8NI35 113-229): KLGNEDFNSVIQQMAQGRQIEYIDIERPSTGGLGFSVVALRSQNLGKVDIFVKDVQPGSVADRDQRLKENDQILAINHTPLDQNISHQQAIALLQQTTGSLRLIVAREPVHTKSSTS
Binder,pKd [1],pKd [2],pKd [3],pKd [4],pKd [5],pKd [6],pKd [7],pKd [8],pKd [9],pKd [10],pKd [11],pKd [12],pKd [13],pKd [14],pKd [15],pKd [16],pKd [17],pKd [18],pKd [19],pKd [20],other results
"QSPANIYYKV [EFNB1, P52799]",below the threshold,below the threshold,below the threshold,4.56,3.82,below the threshold,below the threshold,below the threshold,below the threshold,below the threshold,below the threshold,4.38,below the threshold,below the threshold,below the threshold,below the threshold,below the threshold,below the threshold,below the threshold,below the threshold,pKd [21]: below the threshold; pKd [22]: below the threshold; pKd [23]: below the threshold; pKd [24]: below the threshold; pKd [25]: below the threshold; pKd [26]: below the threshold
"SAAKVLTSMC [GHRHR, Q02643]",4.36,below the threshold,below the threshold,4.15,below the threshold,4.75,4.06,below the threshold,below the threshold,below the threshold,below the threshold,below the threshold,below the threshold,below the threshold,below the threshold,3.7,4.35,below the threshold,below the threshold,4.7,pKd [21]: below the threshold; pKd [22]: below the threshold; pKd [23]: below the threshold; pKd [24]: 4.65; pKd [25]: below the threshold; pKd [26]: below the threshold
"QSARLWETSI [ADAM22, Q9P0K1]",3.7,3.61,below the threshold,5.62,3.84,4.46,3.81,4.06,3.91,below the threshold,below the threshold,below the threshold,below the threshold,4.5,below the threshold,4.35,below the threshold,4.92,3.92,5.16,pKd [21]: below the threshold; pKd [22]: below the threshold; pKd [23]: below the threshold; pKd [24]: 4.73; pKd [25]: below the threshold; pKd [26]: 3.47
"MLSKQSESAI [FLVCR1, Q9Y5Y0]",below the threshold,3.91,below the threshold,4.58,below the threshold,4.46,below the threshold,below the threshold,3.92,below the threshold,below the threshold,below the threshold,below the threshold,below the threshold,below the threshold,below the threshold,3.6,below the threshold,below the threshold,3.78,pKd [21]: below the threshold; pKd [22]: below the threshold; pKd [23]: below the threshold; pKd [24]: 3.68; pKd [25]: below the threshold; pKd [26]: below the threshold
"TASPAKETSF [SLC2A7, Q6PXP3]",below the threshold,below the threshold,below the threshold,5.21,below the threshold,below the threshold,below the threshold,below the threshold,below the threshold,below the threshold,below the threshold,below the threshold,below the threshold,4.36,below the threshold,4.5,4,below the threshold,below the threshold,below the threshold,pKd [21]: below the threshold; pKd [22]: below the threshold; pKd [23]: below the threshold; pKd [24]: 3.59; pKd [25]: below the threshold; pKd [26]: below the threshold
"RKPKPSSSCC [RAB9A, P51151]",below the threshold,below the threshold,below the threshold,3.69,below the threshold,4.35,below the threshold,below the threshold,below the threshold,below the threshold,below the threshold,below the threshold,below the threshold,3.69,below the threshold,3.75,3.81,below the threshold,below the threshold,3.76,pKd [21]: below the threshold; pKd [22]: below the threshold; pKd [23]: below the threshold; pKd [24]: 4.27; pKd [25]: below the threshold; pKd [26]: below the threshold
